Data published in US20240026019A1 (Innovent, published 2024).

How the values were obtained:
[1] = molecular target: T1, cynomolgus monkey TNFR2 overexpressed on CHO-S cells (CHOS-cTNFR2) (cynomolgus monkey, UniProt P20333 23-461 (human entry)); test: flow cytometry on CHO-S cells overexpressing cynomolgus monkey TNFR2 (positive control), MFI-FL2-A; unit taken from the axis Conc log(nM)
T1 construct: also called cTNFR2 CHO-S
T1 chain: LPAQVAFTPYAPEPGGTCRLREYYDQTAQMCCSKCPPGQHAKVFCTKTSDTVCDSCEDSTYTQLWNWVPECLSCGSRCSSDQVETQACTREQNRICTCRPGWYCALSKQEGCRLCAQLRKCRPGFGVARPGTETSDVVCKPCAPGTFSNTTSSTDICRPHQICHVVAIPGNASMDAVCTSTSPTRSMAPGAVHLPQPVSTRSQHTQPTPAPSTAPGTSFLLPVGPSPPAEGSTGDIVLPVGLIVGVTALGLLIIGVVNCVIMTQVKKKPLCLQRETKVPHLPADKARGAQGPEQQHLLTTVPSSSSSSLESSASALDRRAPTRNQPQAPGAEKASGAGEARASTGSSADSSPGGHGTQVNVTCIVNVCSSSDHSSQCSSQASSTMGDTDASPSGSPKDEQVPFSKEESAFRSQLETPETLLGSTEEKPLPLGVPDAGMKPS
Procedure: In the study, the binding of the chimeric antibodies of the present invention, after being diluted in a gradient, to a stable CHO-S cell strain overexpressing human TNFR2 on the surface was assayed by using a flow cytometer. cDNAs encoding human TNFR2 (SEQ ID NO: 60) and cynomolgus monkey TNFR2 (SEQ ID NO: 61) were cloned into pCH01.0 vectors (Invitrogen), which were transfected into CHO-S cells (Invitrogen) to produce CHO-S cells overexpressing human TNFR2 (CHOS-hTNFR2) and CHO-S cells overexpressing cynomolgus monkey TNFR2 (CHOS-cTNFR2).
CHOS-hTNFR2 cells or CHOS-cTNFR2 cells were counted and diluted to 2×10⁶ cells/mL, and added to a U-bottom 96-well plate at 100 μL/well. The mixture was centrifuged at 300 g for 5 min, and the cell medium was removed. The dilutions of the samples (the chimeric antibodies 3C4, 69B1, and 72G8 and the positive control antibody OPI) (the antibodies were subjected to a three-fold serial dilution in PBS from the maximum antibody concentration of 300 nM) were added to the U-plate, and the cells were resuspended at 100 μL/well and left to stand on ice for 30 min. The suspension was centrifuged at 400 g for 5 min, and the supernatant was removed. The cells were washed twice with PBS. The mixture was centrifuged at 300 g for 5 min, and PBS was removed. […]

[2] = molecular target: T2, human TNFR2 overexpressed on CHO-S cells (CHOS-hTNFR2) (human, UniProt P20333 23-461); test: flow cytometry on CHO-S cells overexpressing human TNFR2 (positive control beside the hybridoma antibodies), MFI
T2 construct: also called hTNFR2 CHO-S; human TNFR2 molecule overexpressed on CHO-S cells
T2 sequence: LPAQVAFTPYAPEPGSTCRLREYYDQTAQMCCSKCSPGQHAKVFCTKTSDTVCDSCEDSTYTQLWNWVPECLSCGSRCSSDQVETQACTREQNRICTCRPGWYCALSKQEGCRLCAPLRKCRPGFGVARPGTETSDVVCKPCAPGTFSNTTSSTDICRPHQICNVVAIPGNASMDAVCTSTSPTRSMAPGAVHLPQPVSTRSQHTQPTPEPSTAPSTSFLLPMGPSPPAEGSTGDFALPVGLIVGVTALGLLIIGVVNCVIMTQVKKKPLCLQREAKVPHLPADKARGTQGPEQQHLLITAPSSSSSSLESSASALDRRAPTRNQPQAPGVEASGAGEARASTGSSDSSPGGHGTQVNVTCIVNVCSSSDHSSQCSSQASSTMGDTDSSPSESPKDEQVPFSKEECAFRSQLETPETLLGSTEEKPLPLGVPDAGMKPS
Procedure: In the study, the binding of the hybridoma antibodies (3C4, 69B1, and 72G8) of the present invention, after being diluted in a gradient, to a stable CHO-S cell strain overexpressing human TNFR2 on the surface was assayed by using a flow cytometer.
CHOS-hTNFR2 cells or CHOS-cTNFR2 cells were counted and diluted to 2×10⁶ cells/mL, and added to a U-bottom 96-well plate at 100 μL/well. The mixture was centrifuged at 300 g for 5 min, and the cell medium was removed. The dilutions of the samples (the hybridoma antibodies 3C4, 69B1, and 72G8 and the positive control antibody OPI) (the antibodies were subjected to a two-fold serial dilution in PBS from the maximum antibody concentration of 300 nM) were added to the U-plate, and the cells were resuspended at 100 μL/well and left to stand on ice for 30 min. The suspension was centrifuged at 400 g for 5 min, and the supernatant was removed. The cells were washed twice with PBS. The mixture was centrifuged at 300 g for 5 min, and PBS was removed. […] The mixture was centrifuged at 400 g for 5 min, and the supernatant was removed. The cells were washed 3 times with PBS. The cells were resuspended in 200 μL of 1×PBS and assayed by FACS.

B1: positive control antibody OPI (humanized antibody SBT-002e in WO 2017083525) (antibody, V domains shown)
VH: QVTLKESGPALVKPTQTLTLTCTFSGFSLSTSGMGVGWIRQPPGKALEWLAHIWWDDDKFYNPSLKSRLTISKDTSKNQVVLTMTNMDPVDTATYYCARLTGTRYFDYWGQGTTVTVSS
VL: DVQMTQSPSSLSASVGDRVTITCKASQDINKFIAWYQQKPGKAPKLLIHYTSTLQPGIPSRFSGSGSGRDYTFTISSLQPEDIATYYCLQYGNLWTFGGGTKVEIK
notes: also called Benchmark OPI
[1]
  EC50: 0.431 nM
[2]
  EC50 (read off the curve): ~2 nM
